Source: US20240101668A1
Substitutions are numbered along the chain they refer to. Each block holds one binder with its values, some of them ahead of it.

What was measured:
[1] = biological target: huFLT3-M227 stably expressed on Ramos cells (human) (UniProt P36888); experiment: FACS on cells
[2] = biological target: huFLT3-T227 stably expressed on Ramos cells (human) (UniProt P36888); experiment: FACS on cells

FACS geometric mean fold change over Jurkat parental [1]: < 2 fold
FACS geometric mean fold change over Jurkat parental [2]: < 2 fold
B1: Polypeptide No. 211 (scFv, V domains shown)
VH: EVQLLESGGGLVQPGGSLRLSCAASGFTFSNHYMSWVRQAPGKGLEWVSAIGAGGGTYYADSVKGRFTISRDNSKNTLYLQMNSLRAEDTAVYYCAKSSGYSYGRRPFDYWGQGTLVTVSS
VL: DIQMTQSPSSLSASVGDRVTITCRASQGISNNLAWYQQKPGKAPKLLIYAASTLHNGVPSRFSGSGSGTDFTLTISSLQPEDFATYYCQQYGRSPKTFGQGTKVEIKR

FACS geometric mean fold change over Jurkat parental [1]: < 2 fold
FACS geometric mean fold change over Jurkat parental [2]: < 2 fold
B2: Polypeptide No. 264 (scFv, V domains shown)
VH: QVQLVQSGAEVKKPGSSVKVSCKASGYTLTELSMHWVRQAPGQGLEWMGGIIPISSATSIPQKFQGRVTITADESTSTAYMELSSLRSEDTAVYYCARGALYSSSPVRVVAGTKGWFDPWGQGTLVTVSS
VL: B1 VL with G28D, N32Y, T53S, H55Q, N56S, G92Y, R93S, S94Y, K96L, Q100G

FACS geometric mean fold change over Jurkat parental [1]: < 2 fold
FACS geometric mean fold change over Jurkat parental [2]: < 2 fold
B3: Polypeptide No. 236 (scFv, V domains shown)
VH: QVQLVQSGAEVKKPGSSVKVSCKASGGTFSSYAISWVRQAPGQGLEWMGGIIPILGIANYAQKFQGRVTITADESTSTAYMELSSLRSEDTAVYYCAHVDGYGMDVWGQGTTVTVSS
VL: EIVMTQSPATLSVSPGERATLSCRASQSVSSNLAWYQQKPGQAPRLLIYDVSSRATGIPARFSGSGSGTEFTLTISSLQSEDFAVYYCQQLDAYPLTFGGGTKVEIKR

FACS geometric mean fold change over Jurkat parental [1]: < 2 fold
FACS geometric mean fold change over Jurkat parental [2]: < 2 fold
B4: Polypeptide No. 266 (scFv, V domains shown)
VH: QVQLVQSGAEVKKPGSSVKVSCKASGYSLTELSIHWVRQAPGQGLEWMGGINPISGTANYAQKFQGRVTITADESTSTAYMELSSLRSEDTAVYYCARGTVRLNWFDPWGQGTLVTVSS
VL: B3 VL with S30G, N32Q, A34G, D50G, V51A, S53T, L91S, D92F, A93S, Y94T

FACS geometric mean fold change over Jurkat parental [1]: < 2 fold
FACS geometric mean fold change over Jurkat parental [2]: < 2 fold
B5: Polypeptide No. 255 (scFv, V domains shown)
VH: QVQLVQSGAEVKKPGSSVKVSCKASGYTLTELSMHWVRQAPGQGLEWMGGIIPISGTVTYAQKFQGRVTITADESTSTAYMELSSLRSEDTAVYYCANKGQQLVRGYFQHWGQGTLVTVSS
VL: DIQMTQSPSSLSASVGDRVTITCQASHDIRNSVNWYQQKPGKAPKLLIYATSSLQSGVPSRFSGSGSGTDFTLTISSLQPEDFATYYCQQSYNTPFTFGQGTKLEIKR

FACS geometric mean fold change over Jurkat parental [1]: < 2 fold
FACS geometric mean fold change over Jurkat parental [2]: < 2 fold
B6: Polypeptide No. 267 (scFv, V domains shown)
VH: QVQLVQSGAEVKKPGSSVKVSCKASGYTLTSFGISWVRQAPGQGLEWVGMIIPLSGTTHYAQKFQGRVTITADESTSTAYMELSSLRSEDTAVYYCANLYGGNAYYYYGMDVWGQGTTVTVSS
VL: B5 VL with Q24R, H27Q, R30S, S32F, N34A, T51A, Y92F, N93D, F96Y

FACS geometric mean fold change over Jurkat parental [1]: < 2 fold
FACS geometric mean fold change over Jurkat parental [2]: < 2 fold
B7: Polypeptide No. 232 (scFv, V domains shown)
VH: QVQLVQSGAEVKKPGASVKVSCKASGYTFTSYGIHWVRQAPGQGLEWMGGIIPIFGTASYAQKFQGRVTMTRDTSTSTVYMELSSLRSEDTAVYYCTRSNGIAAAGTHWYFDLWGRGTLVTVSS
VL: DIQMTQSPSSLSASVGDRVTITCRASQNIANSLNWYQQKPGKAPKLLIYAASSLQSGVPSRFSGSGSGTDFTLTISSLQPEDFATYYCQQYSSYPPTFGPGTKVDIKR

FACS geometric mean fold change over Jurkat parental [1]: < 2 fold
FACS geometric mean fold change over Jurkat parental [2]: < 2 fold
B8: Polypeptide No. 227 (scFv, V domains shown)
VH: QVQLVQSGAEVKKPGSSVKVSCKASGYTLNELFMHWVRQAPGQGLEWVGGIIPMSGTTFYAQTFQGRVTITADESTSTAYMELSSLRSEDTAVYYCAKGVRQYSYGRYYYGMDVWGQGTLVTVSS
VL: DIQMTQSPSSLSASVGDRVTITCRASQSVSSYLNWYQQKPGKAPKLLIYGASNLQSGVPSRFSGSGSGTDFTLTISSLQPEDFATYYCQQSYTTPWTFGQGTRLEIKR

FACS geometric mean fold change over Jurkat parental [1]: < 2 fold
FACS geometric mean fold change over Jurkat parental [2]: < 2 fold
B9: Polypeptide No. 277 (scFv, V domains shown)
VH: QVQLVQSGAEVKKPGSSVKVSCKASGYTFTGYYMHWVRQAPGQGLEWMGWIDPNSGGTNYAQKFQGRVTITADESTSTAYMELSSLRSEDTAVYYCARDVDTAMVTDYWGRGTLVTVSS
VL: EIVMTQSPATLSVSPGERATLSCRASQSVDNLVGWYQQKPGQAPRLLIYDISSRATGIPARFSGSGSGTEFTLTISSLQSEDFAVYYCQQYGRSPITFGQGTRLEIKR

FACS geometric mean fold change over Jurkat parental [1]: < 2 fold
FACS geometric mean fold change over Jurkat parental [2]: < 2 fold
B10: Polypeptide No. 230 (scFv, V domains shown)
VH: QVQLVQSGAEVKKPGSSVKVSCKASGGTFSSNAINWVRQAPGQGLEWMGGIIPLFGTTNYAQKFQGRVTITADESTSTAYMELSSLRSEDTAVYYCARVLSGWYGTYYFDYWGQGTLVTVSS
VL: EIVMTQSPATLSVSPGERATLSCRASQSVSADYIAWYQQKPGQAPRLLIYDVSTRASGIPARFSGSGSGTEFTLTISSLQSEDFAVYYCQHYGSSQVTFGQGTKVEIKR

FACS geometric mean fold change over Jurkat parental [1]: < 2 fold
FACS geometric mean fold change over Jurkat parental [2]: < 2 fold
B11: Polypeptide No. 251 (scFv, V domains shown)
VH: QVQLVQSGAEVKKPGSSVKVSCKASGGTFSSDAINWVRQAPGQGLEWMGGIIPIVGTPTYAQKFQGRVTITADESTSTAYMELSSLRSEDTAVYYCAKGLAFGVFDGLDVWGQGTTVTVSS
VL: B10 VL with A31S, D32N, I34L, S57T, H91Q, Q96T, V97L, Q101G

FACS geometric mean fold change over Jurkat parental [1]: < 2 fold
FACS geometric mean fold change over Jurkat parental [2]: < 2 fold
B12: Polypeptide No. 258 (scFv, V domains shown)
VH: QVQLVQSGAEVKKPGASVKVSCKASGGTFGSYAISWVRQAPGQGLEWMGWINPNTGGAHYAQKFQGRVTMTRDTSTSTVYMELSSLRSEDTAVYYCARVGAAAGYQHWGQGTLVTVSS
VL: DIQMTQSPSSLSASVGDRVTITCRASQSIKGALAWYQQKPGKAPKLLIYSASNLQSGVPSRFSGSGSGTDFTLTISSLQPEDFATYYCQQYNSYPLTFGGGTKVEIKR

FACS geometric mean fold change over Jurkat parental [1]: < 2 fold
FACS geometric mean fold change over Jurkat parental [2]: < 2 fold
B13: Polypeptide No. 289 (scFv, V domains shown)
VH: QVQLVQSGAEVKKPGASVKVSCKASGYTFTSYGISWVRQAPGQGLEWMGWMNPISGNTDYAPNFQGRVTMTRDTSTSTVYMELSSLRSEDTAVYYCVVERRREVGMDVWGQGTTVTVSS
VL: DIQMTQSPSSLSASVGDRVTITCQASQGITSYLNWYQQKPGKAPKLLIYKASSLESGVPSRFSGSGSGTDFTLTISSLQPEDFATYYCQQGYSTPLTFGGGTKVEIKR
